B1: minF1; a variant is named by its letters at N, in order (parent)
chain: GAGACCGCAACTGAAAAGTTGTTNNNNAANNNNGGNTNNATTTCTGCACGTAGAAGCAAAAGGC

Variants of: B1
Assay: fraction ligated after 30 min (ligated reads / total reads); higher = more ligase activity
Settings: with F1*subA RNA substrate (template-directed ligation), 42 °C
Experimental: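 Chip-synthesised pool of minF1 ligase ribozyme variants (single and double substitutions, single to quadruple deletions, bulge and P2 designed variants) was transcribed with T7 and reacted as a pool with excess substrate F1*subA for 30 min at 42 C in 50 mM EPPS pH 8.5, 25 mM MgCl2. Ligated and unligated RNAs were separated by PAGE, barcoded by RT and deep sequenced; fraction ligated = ligated reads / total reads, relative activity = FL / FL of wild-type minF1 (0.76); sequencing FL correlated with PAGE (R2 = 0.98). Sequences are the DNA template of the ribozyme.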

Variant | fraction ligated
GAGACCGCAACTGAAAAGTTGTTTAGAAATGGTGGTTGAATTTCTGCACGTAGAAGCAAAAGGC [TAGATGGTTGA] | 0.00065
GAGACCGCAACTGAAAAGTTGTACAGAAATGGTGGGTTGATTTCTGCACGTAGAAGCAAAAGGC [CAGATGGTGTG T23A] | 0.00474
GAGACCGCAACTGAAAAGTTGTTAAGAAATGGTGGGTTAATTTCTGCACGTAGAAGCAAAAGGC [AAGATGGTGTA] | 0.00401
GAGACCGCAACTGAAAAGTTGTTAAGAAATGGTGGGTTGATTTCTGCACGTAGAAGCAAAAGGC [AAGATGGTGTG] | 0.00357
GAGACCGCAACTGAAAAGTTGTTCAGAAATGGTGGGTTGATTTCTGCACGTAGAAGCAAAAGGC [CAGATGGTGTG] | 0.00377
GAGACCGCAACTGAAAAGTTGTTCAGAAATGGTGGGTTAATTTCTGCACGTAGAAGCAAAAGGC [CAGATGGTGTA] | 0.00171
GAGACCGCAACTGAAAAGTTGTTACAAATGGATGGTTGAATTTCTGCACGTAGAAGCAAAAGGC [ACAAGGATTGA A29T] | 0.00464
GAGACCGCAACTGAAAAGTTGTTAAGAAATGGATGGGTTATTTCTGCACGTAGAAGCAAAAGGC [AAGATGGAGTT G34T T37G] | 0.00134
GAGACCGCAACTGAAAAGTTGTATAGAAATGGTGGGTTGATTTCTGCACGTAGAAGCAAAAGGC [TAGATGGTGTG T23A] | 0.00451
GAGACCGCAACTGAAAAGTTGTTTAGAAATGGAGGTTGAATTTCTGCACGTAGAAGCAAAAGGC [TAGATGGATGA] | 0.00101
GAGACCGCAACTGAAAAGTTGTATCAATGGATGGGTTGAATTTCTGCACGTAGAAGCAAAAGGC [TCAAGATGTGA T23A A28T A29G] | 0.00482
GAGACCGCAACTGAAAAGTTGTTAAGAAATGGATGGGTTGTTTCTGCACGTAGAAGCAAAAGGC [AAGATGGAGTT G34T T37G A40G] | 0.0006
GAGACCGCAACTGAAAAGTTGTTCAGAAATGGATGGGTTATTTCTGCACGTAGAAGCAAAAGGC [CAGATGGAGTT G34T T37G] | 0.0026
GAGACCGCAACTGAAAAGTTGTTCAGAAATGGGGGTTGAATTTCTGCACGTAGAAGCAAAAGGC [CAGATGGGTGA] | 0.00455
GAGACCGCAACTGAAAAGTTGTTACAAATGGAGGGTTGAATTTCTGCACGTAGAAGCAAAAGGC [ACAAGGAGTGA A29T] | 0.00407
GAGACCGCAACTGAAAAGTTGTTCAGAAATGGTGGTTGAATTTCTGCACGTAGAAGCAAAAGGC [CAGATGGTTGA] | 0.000297
GAGACCGCAACTGAAAAGTTGTTACAAAAGGATGGGTTAATTTCTGCACGTAGAAGCAAAAGGC [ACAAGGATGTA] | 0.00108
GAGACCGCAACTGAAAAGTTGTTACAAAAGGATGGGTTGATTTCTGCACGTAGAAGCAAAAGGC [ACAAGGATGTG] | 0.00585
GAGACCGCAACTGAAAAGTTGTTTCAAATGGATGGGTTGATTTCTGCACGTAGAAGCAAAAGGC [TCAAGGATGTG A29T] | 0.00632
GAGACCGCAACTGAAAAGTTGTATAGAAATGTGGGTTGAATTTCTGCACGTAGAAGCAAAAGGC [TAGATGTGTGA T23A] | 0.00136
GAGACCGCAACTGAAAAGTTGTACAGAAATGTGGGTTGAATTTCTGCACGTAGAAGCAAAAGGC [CAGATGTGTGA T23A] | 0.00226

Variant | fraction ligated
GAGACCGCAACTGAAAAGTTGTACAGAAATGGAGGTTGAATTTCTGCACGTAGAAGCAAAAGGC [CAGATGGATGA T23A] | 0.00203
GAGACCGCAACTGAAAAGTTGTTTAGAAATGGATGGGTTATTTCTGCACGTAGAAGCAAAAGGC [TAGATGGAGTT G34T T37G] | 0.00107
GAGACCGCAACTGAAAAGTTGTTACAAAAGGATGGTTGAATTTCTGCACGTAGAAGCAAAAGGC [ACAAGGATTGA] | 0.00332
GAGACCGCAACTGAAAAGTTGTTCAGAAATGTGGGTTGAATTTCTGCACGTAGAAGCAAAAGGC [CAGATGTGTGA] | 0.00342
GAGACCGCAACTGAAAAGTTGTTACAAATGGATGGGTTGATTTCTGCACGTAGAAGCAAAAGGC [ACAAGGATGTG A29T] | 0.00671
GAGACCGCAACTGAAAAGTTGTACAGAAATGGGGGTTGAATTTCTGCACGTAGAAGCAAAAGGC [CAGATGGGTGA T23A] | 0.00475
GAGACCGCAACTGAAAAGTTGTATAGAAATGGAGGTTGAATTTCTGCACGTAGAAGCAAAAGGC [TAGATGGATGA T23A] | 0.00368
GAGACCGCAACTGAAAAGTTGTTTCAAAAGATGGGTTGAATTTCTGCACGTAGAAGCAAAAGGC [TCAAGATGTGA] | 0.00179
GAGACCGCAACTGAAAAGTTGTATCAAAAGGATGGGTTGATTTCTGCACGTAGAAGCAAAAGGC [TCAAGGATGTG T23A] | 0.00539
GAGACCGCAACTGAAAAGTTGTTTCAAAAGGAGGGTTGAATTTCTGCACGTAGAAGCAAAAGGC [TCAAGGAGTGA] | 0.000917
GAGACCGCAACTGAAAAGTTGTTACAAAAGGTGGGTTGAATTTCTGCACGTAGAAGCAAAAGGC [ACAAGGTGTGA] | 0.00367
GAGACCGCAACTGAAAAGTTGTATCAAAAGGATGGTTGAATTTCTGCACGTAGAAGCAAAAGGC [TCAAGGATTGA T23A] | 0.00297
GAGACCGCAACTGAAAAGTTGTATAGAAATGGATGGGTTGTTTCTGCACGTAGAAGCAAAAGGC [TAGATGGAGTT T23A G34T T37G A40G] | 0.00177
GAGACCGCAACTGAAAAGTTGTATCAAATGATGGGTTGAATTTCTGCACGTAGAAGCAAAAGGC [TCAAGATGTGA T23A A29T] | 0.00239
GAGACCGCAACTGAAAAGTTGTATCAAAGGATGGGTTGAATTTCTGCACGTAGAAGCAAAAGGC [TCAAGATGTGA T23A A29G] | 0.00178
GAGACCGCAACTGAAAAGTTGTTTCAAAGGATGGGTTGAATTTCTGCACGTAGAAGCAAAAGGC [TCAAGATGTGA A29G] | 0.0031
GAGACCGCAACTGAAAAGTTGTTTCAAATGATGGGTTGAATTTCTGCACGTAGAAGCAAAAGGC [TCAAGATGTGA A29T] | 0.00235
GAGACCGCAACTGAAAAGTTGTTACAATGGATGGGTTGAATTTCTGCACGTAGAAGCAAAAGGC [ACAAGATGTGA A28T A29G] | 0.00369
GAGACCGCAACTGAAAAGTTGTATCAAATGGATGGTTGAATTTCTGCACGTAGAAGCAAAAGGC [TCAAGGATTGA T23A A29T] | 0.00443
GAGACCGCAACTGAAAAGTTGTTTCAAATGGATGGTTGAATTTCTGCACGTAGAAGCAAAAGGC [TCAAGGATTGA A29T] | 0.00468
GAGACCGCAACTGAAAAGTTGTTCAGAAATGGAGGTTGAATTTCTGCACGTAGAAGCAAAAGGC [CAGATGGATGA] | 0.00376
